Test results taken from patent US20200369764A1 (INNATE PHARMA, published 2020).
Values belong to the molecule of their own block, whether it stands above or below them.

Assays:
Human Siglec-7 (human) = Human Siglec-7 (human) (UniProt Q9Y286); assay: flow cytometry, fresh purified human NK cells (CD3-/CD56+), isotype control plot
Human Siglec-9 [1] = target: T1, Human Siglec-9 (human, UniProt Q9Y336 18-463); assay: as above
T1 construct: on transfected CHO cells, YTS Siglec-9* cells, or native on primary NK cells and moDC (see assay); also called huSiglec-9; CD329

Human Siglec-9 [2] = target: T1, Human Siglec-9; assay: flow cytometry titration on moDC, neuraminidase-treated against untreated
Procedure: moDC were desialylated for 2 hours with 25 mU neuraminidase (Roche Diagnostics).
Binding on moDCs and neuraminidase treated moDCs was tested in a titration experiment by flow cytometry. Cells were incubated 1h in Staining Buffer (SB) with primary antibodies at 10 μg/ml and a series of dilution of 1:10. They were washed two times with SB, then incubated 30 min with a Goat F(ab′)² Anti-Human IgG (Fc) PE (Jackson ImmunoResearch), and washed twice with SB.

T1 sequence (Q9Y336 18-463): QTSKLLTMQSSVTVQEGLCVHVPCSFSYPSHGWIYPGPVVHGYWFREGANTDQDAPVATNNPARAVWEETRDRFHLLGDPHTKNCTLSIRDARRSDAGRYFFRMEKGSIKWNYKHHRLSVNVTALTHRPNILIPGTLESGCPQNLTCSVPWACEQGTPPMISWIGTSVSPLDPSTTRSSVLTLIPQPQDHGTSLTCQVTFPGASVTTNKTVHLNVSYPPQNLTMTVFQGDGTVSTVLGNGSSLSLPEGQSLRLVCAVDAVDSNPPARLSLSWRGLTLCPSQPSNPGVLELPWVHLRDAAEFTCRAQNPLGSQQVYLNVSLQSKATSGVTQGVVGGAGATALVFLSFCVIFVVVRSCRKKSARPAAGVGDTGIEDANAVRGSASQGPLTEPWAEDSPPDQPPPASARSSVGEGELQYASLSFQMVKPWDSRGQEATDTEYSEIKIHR
Human Siglec-7 (human), sequence (Q9Y286 19-467): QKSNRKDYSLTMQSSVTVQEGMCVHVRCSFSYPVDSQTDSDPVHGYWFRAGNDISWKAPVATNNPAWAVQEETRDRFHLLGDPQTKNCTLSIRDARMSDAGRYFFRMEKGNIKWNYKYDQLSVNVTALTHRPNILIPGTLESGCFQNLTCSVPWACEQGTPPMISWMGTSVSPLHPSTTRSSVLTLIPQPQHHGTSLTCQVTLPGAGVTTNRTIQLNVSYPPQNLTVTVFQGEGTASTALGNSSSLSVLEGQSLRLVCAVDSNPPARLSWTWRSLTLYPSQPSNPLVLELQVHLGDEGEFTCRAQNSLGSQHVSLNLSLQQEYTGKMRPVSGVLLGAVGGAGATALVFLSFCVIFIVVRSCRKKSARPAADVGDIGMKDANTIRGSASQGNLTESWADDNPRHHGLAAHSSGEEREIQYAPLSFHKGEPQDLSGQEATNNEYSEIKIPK

Molecule: Isotype control - APC (antibody)
% of NK cells in Q1 (APC positive, PE negative) (Human Siglec-7 (human)): 0.975%
% of NK cells in Q2 (APC positive and PE positive) (Human Siglec-7 (human)): 0.34%

Molecule: Isotype control - PE (antibody)
% of NK cells in Q2 (APC positive and PE positive) (Human Siglec-9 [1]): 0.34%
% of NK cells in Q3 (PE positive, APC negative) (Human Siglec-9 [1]): 2.54%

B1: mAbA (antibody, V domains shown)
VH: QVQLQQPGAELVKPGSPVKLSCKASYFTFTSYWMHWVRQRPGQGLEWIGEINPSNGHTNYNEKFESKATLTVDRSSSTAYMQLSSLTSEDSAVFYCANGVESYDFDDALDYWGQGTSVTVSS
VL: DIQMTQTTSSLSASLGDRVTISCRASQDINNYLNWYQQKPDGTIKLLIYYTSRLHSGVPSRFSGSGSGTDYSLTINNLEQEDIATYFCQQGNTLPFTFGGGTKLEIK
notes: chimeric human IgG1, heavy chain N297Q (Kabat EU numbering)
fold enhancement of EC50 on moDC after neuraminidase treatment (Human Siglec-9 [2]): 10 fold

Further lines, results first:

fold enhancement of EC50 on moDC after neuraminidase treatment (Human Siglec-9 [2]): 10 fold
B2: mAbD (antibody, V domains shown)
VH: QIQLVQSGPELKKPGETVKISCKASGYTFTDYSMHWVKQAPGKGLKWMGWIITETGEPTYADDFRGRFAFSLETSANTAYLQINNLKNEDTATYFCARDFDGYWGQGTTLTVSS
VL: DILMTQSPASLSASVGETVTITCRASENIYSYLAWYQQKRGKSPQFLVYNAKTLTEGVPSRFRGSGSGTQFSLKINSLQPEDFGTYYCQHHYGFPWTFGGGTKLEIK
notes: as for B1

fold enhancement of EC50 on moDC after neuraminidase treatment (Human Siglec-9 [2]): 10 fold
B3: mAbC (antibody, V domains shown)
VH: QIQLVQSGPELKKPGETVKISCKASGYTFTNYEMNWVKEAPGKGLKWMGWINTYTGESTYADDFKGRFAFSLETSASTVYLQINNLKDEDVATYFCVRDDYGRSYGFAYWGQGTLVTVSA
VL: NIVLTQSPASLTVSLGQRANISCRASESVDSYGNSFMHWYQQKPGQPPKLLIYLASKLESGVPARFSGSGSRTDFTLTIDPVETDDAATYYCHQNNEDPPWTFGGGTKLEIK
notes: as for B1
